Assay results reported in the RNAGym collection of RNA variant scans (doi:10.1073/pnas.2313332121).

B1: TPR t1 (parent)
chain: GACCAAUCUGCCCUCAGAGCUCGAGAACAUCUUCGGAUGCAGAGGAGGCAGGCUUCGGUGGCGCGAUAGCGCCAACGUCCUCAACCUCCAAUGCAUCCCACCACAUGAUGAUGCCUGAAGAGCCUUGGUUUUUUG

Variants of: B1
Experiment: polymerase ribozyme fitness, log enrichment relative to wild type (log ratio); higher = more active; in vitro selection for triplet polymerase activity
Procedure, shortened: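 One round of in vitro selection, in triplicate, was applied to PCR-built, transcribed mutant libraries of each subunit of a heterodimeric triplet polymerase ribozyme. The steps were annealing with a biotinylated primer, partner subunit and triplets, incubation frozen at −7 °C, gel excision of extended constructs, streptavidin-bead capture and RT-PCR. Fitness is the logarithm, base 2, of genotype enrichment over wild-type enrichment from inverse-variance-weighted replicate averages of Illumina-sequenced inputs and outputs, keeping genotypes with ≥10 input reads and ≥1 read per output.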

Point of comparison: GACCAAUCUGUCCUCAGAGCUCGAGAACAUCUUCGGAUGCCGAGGAGGGAGGCUUCGGAGUCGCGAUAGCGCCAACGUCCUCAACCUCCACUGCAUCCCACCACAUGAUGAUGCCUGAAGAGCCUUGGUGUUUUG, “polymerase ribozyme fitness (log ratio)” value -3.24. Against it:
- GACCAAUCUGGCCUCAGAGCUCGAGAACAUCUUCGGAUGCAGAGGAGGCAGGCUUCGGUGGCGCGAUAGCGCCAACGUCCUCAACCUCCAAUGCAUCCCACCACAUCAUGACGCCUGAAGAGUCUUGCUUUUUUG — lower, -5.88
- GACCAAUCUGGCCUCAGAGCACGUGAACAUCUUCGGAUGCAGAGGAGGCAGGCUUCGGUUGCGCGAUAGCGCCAACGUCCUCAACCUCCAAUGGAUCCCACCACAUGAUGAUGCCUGAAAAGCCUUGGUUUUUUG — lower, -7.06
- GACCAAUCUGGCCUCAGAGCUCGAGAACAUCCUCGGAUGCAGAGGAGGCAGGCUUCGGUGGCGCGAUAGCGCCAACGUCCUCAACCUCCAAUGCAUCCCACCACAUGAUGAUGCCUGAAGAGCCUUGGUUUUUUG — higher, -0.0143
- GACCAAUCUGGCCUCAGAGCUCGAGAACAUCUUCGGAUGCAGAGGAGGCAGGCUUCGGUGGCGCGAUAGCGCCAACGUCCUCAACCGCCAAUGCAUCCCACCACAUGAUGAUGCCUGAAGAGGCUUGGUUUUUUG — higher, 1.19
- GACCAAUCUGGCCUCAGAGCUCGAGAACAUCUUCGGAUGCAGAGGAGGCAGGCUUCGGUGGCGCGAUAGCGCCAACGUCCUCAACCUCCAAUGCAUCCCACCACAUGAUGAAGCCUGAAGAGCCUUGGUUUUUUG — higher, 1.42
- GACCAAUCUGUCCUCAGAGCUCGAGAACAUCUUCGGCUGCAGAGGAGGCAGCCUUCGGUGGCGCGAUAGCGCCAAUGUCCUCAACCUCCAAUGCAUCCCACCACAUGAUGAUGCCUGAAGAGCCUUGGUUUUUUG — higher, -2.87
- GACCAAUCUGUCCUCAGGGCUCGAGAACAUCUUCGGAUGCAGAGGAGGCAGGCUUCGGUGGCGCGAUAGCGCCAACGUCCUCAACCUCCAAUGCAUCCCACCACAUGAUGAUGCCUGAAGAGCCUUGGUUUUUUG — lower, -3.57
- GACCAAUCUGGCCUCAGAGCUCGAGAACAUCUUCGGAUGCAGAGGAGGCAGGCUUCGGUGGCGCGAUAGCGCCAACCUCCUCAACCUCCAAUGCAUCCCACCACAUGAUGAUGCCUGAAGAGCCUUGGUUUUUUG — higher, -0.624
- GACCAAUCUGUCCUCAGAGCUCGAGAACAUCUUCGGAUGCAGAGGAGGCAGGCUUCGGUGGCGCGAUAGCGCCAACGUCCUCAACCUCCAAUGCAUCCCCCCACAUGAUAAUGCCUGAAGAGCCUUGGUUUUUUG — higher, -2.68
- GACCAAUCUGUCCUCAGAGCUCGAGAACAUCUUCGGAUGCAGAGGAGGCAGGCUUCGGUGGCGCGAUAGCGCCGACGUCCUCAACCUCGAAUGCAUCCCACCACAUGAUGAUGCCUGAAGAGCCUUGGUUUUUUG — higher, -3.01
- GACCAAUCUGUCCUCAGAGCUCGAGAACUUCUUCGGAUGCAGAGGAGGCAGGCUUCGGUGGCGCGAUAGCGCCAACGUCCUCAACCUCCAUUGCAUCCCACCACAUCAUGAUGUCUGAAGAGCCUUGGUUUUUUG — lower, -5.83
- GACCAAUCUGUCCUCAGAGCUCGAGAACAUCUUCGGAUGCAGCGGAGGCAGGCUUCGGUGGCGCGAUACCGCCAACUUCCUCAACCUCCAAUGCAUCCCACCACAUGAUGAGGCCUGAAGAGCCUUGGUUUUUGG — lower, -5.15
- GACCAAUCUGUCCUCAGAGCUCGAGAACAUCUUCGGAUGCAGAGGAGGCUGGCUUCGGUGCCGCGAUAGCGCCAAAGUCCUCAACCUCCAAUGCAUCCCACCACAUGAUGCUGCCUGAAGAGCCUUGGUUUUUUG — lower, -6.51
- GACCAAUCUGUCCUCAGAGCUCGAGAACAUCUUCGGAUGCAGAGGGGGCAGGCUUCGGUGGCGCGAUAUCGCCAACGUCCUCAACCUCCAAUGCAUCCCACCACAUGAUGAUGCCUGAAGAGCCUUGGUUUUUUG — higher, -0.0646
- GACCAAUCUGUCCUCAGAGCUCGAGAACUUCUUCGGAUGCAGAGGAGGCAGGUUUCGGUGGCGCGAUAGCGACAACGUCCUCAACCUCCAAUGCAUCCCACCACAUGAUGAUGCCUGAAGAGACUUGGUUUUUUG — higher, -0.568
- GACCAAUCUGUCCUCAGAGCUCGAGAACAUCUUCGGAUGCUGAGGAGGCAGGCUUCGGUGGCGCGAUAUCGCCGACGUCCUCAACCUCCAAUGCAUCCCACCACAUGAUGAUGCCUAAAGAGCCAUGGUAAUUUG — lower, -6.86
- GACCAAUCUGUCCUCAGAGCUCGAGAACAUCUUCGGAUGCAGAGGCGGCAUGCUUCGGUGGCGCGAUAGCGCCAACGUCCUCAACGUCCAAUGCAUCCCACAACAUGAUGAUGCCUGAAGAGCCUUGGUUUUUUG — lower, -8.49
- GACCAAUCUGUCCUCAGUGCUCGAGAACAUCUUCGGAUGCAGAGGAGGCAGGUUUCGGUGGCGCGAUAGCGGCAACGUCCUGAACCUCCAAUGCAGCUCACCAUAUGACGAUGCCUGAAGAGCCUUGGUUUUUUG — lower, -7.77
- GACCAAUCUGGCCUCAGAGCUCGAGAACAUCUUCGGAUGCAGAGGAGGCAGGCUUCGGUGGCGCGAUAGCGCCAACGUCCUCAACCUCCAAUGCAUCCCACCACAUGAUGAUACCUGAUAAGCCUUGGUUUUUUG — higher, -0.282
- GACCAAUCUGGCCUCAGAGCUCGAGAACAUCUUCGGAUGCAGAGGAGGCAGGCUUCGGUGGCGCGAUAGCGCCAACGUCCUCAACCUCCAAUGCAUCCCACCACAUGAUGAUGCCUCAAGAGCCUUGGUUUUUUG — higher, -1.94
